Assay results published in the Immune Epitope Database (IEDB).

Legend:
[1] = target: HLA-A*26:02; experiment: IEDB peptide-MHC binding, purified MHC/competitive/fluorescence; filed as Kd, often an IC50 or EC50 that approximates it; ≥ and ≤ were set here for values at or beyond the usual limits of such assays; details: source organism: Orthomarburgvirus marburgense
[2] = target: HLA-A*02:06; experiment: as above; details: source organism: Orthomarburgvirus marburgense
[3] = target: HLA-A*31:01; experiment: IEDB peptide-MHC binding, purified MHC/direct/fluorescence; filed as Kd, often an IC50 or EC50 that approximates it; ≥ and ≤ were set here for values at or beyond the usual limits of such assays; details: source organism: Marburg virus - Musoke, Kenya, 1980
[4] = target: HLA-A*02:01; experiment: as above; details: source organism: Marburg virus - Musoke, Kenya, 1980
[5] = target: HLA-B*48:01; experiment: as above; details: source organism: Marburg virus - Musoke, Kenya, 1980
[6] = target: HLA-A*01:01; experiment: as above; details: source organism: Marburg virus - Musoke, Kenya, 1980
[7] = target: HLA-B*07:02; experiment: as above; details: source organism: Marburg virus - Musoke, Kenya, 1980
[8] = target: HLA-B*15:09; experiment: as above; details: source organism: Orthomarburgvirus marburgense
[9] = target: HLA-B*08:02; experiment: as above; details: source organism: Orthomarburgvirus marburgense
[10] = target: HLA-A*68:02; experiment: as above; details: source organism: Marburg virus - Musoke, Kenya, 1980
[11] = target: HLA-B*15:17; experiment: as above; details: source organism: Marburg virus - Musoke, Kenya, 1980
[12] = target: HLA-A*11:01; experiment: as above; details: source organism: Marburg virus - Musoke, Kenya, 1980
[13] = target: HLA-B*18:01; experiment: as above; details: source organism: Marburg virus - Musoke, Kenya, 1980
[14] = target: HLA-B*27:05; experiment: as above; details: source organism: Marburg virus - Musoke, Kenya, 1980
[15] = target: HLA-B*73:01; experiment: as above; details: source organism: Marburg virus - Musoke, Kenya, 1980
[16] = target: HLA-B*57:01; experiment: as above; details: source organism: Marburg virus - Musoke, Kenya, 1980
[17] = target: HLA-B*58:01; experiment: as above; details: source organism: Marburg virus - Musoke, Kenya, 1980
[18] = target: HLA-B*27:02; experiment: as above; details: source organism: Orthomarburgvirus marburgense
[19] = target: HLA-B*15:01; experiment: as above; details: source organism: Marburg virus - Musoke, Kenya, 1980
[20] = target: HLA-A*32:07; experiment: IEDB peptide-MHC binding, purified MHC/competitive/fluorescence; filed as Kd, often an IC50 or EC50 that approximates it; ≥ and ≤ were set here for values at or beyond the usual limits of such assays; details: source organism: Yersinia pestis Nepal516
[21] = target: HLA-A*68:23; experiment: as above; details: source organism: Yersinia pestis Nepal516
[22] = target: HLA-B*45:06; experiment: as above; details: source organism: Yersinia pestis Nepal516
[23] = target: HLA-B*40:13; experiment: as above; details: source organism: Yersinia pestis Nepal516
[24] = target: HLA-B*15:42; experiment: as above; details: source organism: Yersinia pestis Nepal516
[25] = target: HLA-B*35:01; experiment: as above; details: source organism: Yersinia pestis Nepal516
[26] = target: HLA-B*51:01; experiment: as above; details: source organism: Yersinia pestis Nepal516
[27] = target: HLA-B*83:01; experiment: as above; details: source organism: Yersinia pestis Nepal516
[28] = target: HLA-A*32:15; experiment: as above; details: source organism: Yersinia pestis Nepal516
[29] = target: HLA-B*15:01; experiment: as above; details: source organism: Yersinia pestis Nepal516

Sequence: KRLLLKLDF
- Kd [1]: ≥ 20 µM
- Kd [2]: 3.93 µM
- Kd [3]: ≥ 20 µM
- Kd [4]: ≥ 20 µM
- Kd [5]: ≥ 20 µM
- Kd [6]: ≥ 20 µM
- Kd [7]: ≥ 20 µM
- Kd [8]: ≥ 20 µM
- Kd [9]: ≥ 20 µM
- Kd [10]: ≥ 20 µM
- Kd [11]: ≥ 20 µM
- Kd [12]: ≥ 20 µM
- Kd [13]: ≥ 20 µM
- Kd [14]: 0.382 µM
- Kd [15]: ≥ 20 µM
- Kd [16]: ≥ 20 µM
- Kd [17]: ≥ 20 µM
- Kd [18]: 12.2 µM
- Kd [19]: ≥ 20 µM

Sequence: MPFAWQFGF
- Kd [20]: 0.0056 µM
- Kd [21]: 0.0027 µM
- Kd [22]: ≥ 5 µM
- Kd [23]: 0.232 µM
- Kd [24]: ≥ 5 µM
- Kd [25]: ≤ 0.0001 µM
- Kd [26]: 0.669 µM
- Kd [27]: 0.0297 µM
- Kd [28]: 0.0032 µM
- Kd [29]: ≥ 20 µM
